Source: patent US20240368259A1 (ONENA MEDICINES S L, published 2024)

B2: SCBT anti-lefty antibody (Santa Cruz Biotechnology, catalog number sc-365845, mAb D6) (antibody, mouse IgG1, kappa)
heavy: QVQLQQSGAELVRPGASVKLSCKALGYTFADYEMHWVRQTPVHGLEWTGSIHPGSGGTAYDQRFKGKATLTADKSSSTAYMELSSLTSEDSAVYYCTFYDLDYWGQGTTLTVSSAKTTPPSVYPLAPGSAAQTNSMVTLGCLVKGYFPEPVTVTWNSGSLSSGVHTFPAVLQSDLYTLSSSVTVPSSTWPSETVTCNVAHPASSTKVDKKIVPRDCGCKPCICTVPEVSSVFIFPPKPKDVLTITLTPKVTCVVVDISKDDPEVQFSWFVDDVEVHTAQTQPREEQFNSTFRSVSELPIMHQDWLNGKEFKCRVNSAAFPAPIEKTISKTKGRPKAPQVYTIPPPKEQMAKDKVSLTCMITDFFPEDITVEWQWNGQPAENYKNTQPIMDTDGSYFVYSKLNVQKSNWEAGNTFTCSVLHEGLHNHHTEKSLSHSPGK
light: DILMTQAAPSISVTPGESVSISCRSSESLLHSNGNTYLYWFLQRPGQSPQLLIYRKSNLASGVPDRFSGSGSGTAFTLRISRVEAEDVGVYYCMQQLEYPLTFGGGTKLELKRADAAPTVSIFPPSSEQLTSGGASVVCFLNNFYPKDINVKWKIDGSERQNGVLNSWTDQDSKDSTYSMSSTLTLTKDEYERHNSYTCEATHKTSTSPIVKSFNRNEC
notes: The ELISA protocol prints the catalog number as sc-36584, the proliferation protocols as sc-365845; also called SCBT antibody; SCBT Ab

Legend:
[1] = target: T1, BMPR2 (BMP receptor, in mouse fibroblasts and mouse mammary cells) (mouse, UniProt O35607 27-1038); assay: proximity ligation assay in fibroblasts
T1 construct: whole, on cells; For the co-IP it came from cell lysate; also called BMP Type II receptor
T1 sequence (looked up): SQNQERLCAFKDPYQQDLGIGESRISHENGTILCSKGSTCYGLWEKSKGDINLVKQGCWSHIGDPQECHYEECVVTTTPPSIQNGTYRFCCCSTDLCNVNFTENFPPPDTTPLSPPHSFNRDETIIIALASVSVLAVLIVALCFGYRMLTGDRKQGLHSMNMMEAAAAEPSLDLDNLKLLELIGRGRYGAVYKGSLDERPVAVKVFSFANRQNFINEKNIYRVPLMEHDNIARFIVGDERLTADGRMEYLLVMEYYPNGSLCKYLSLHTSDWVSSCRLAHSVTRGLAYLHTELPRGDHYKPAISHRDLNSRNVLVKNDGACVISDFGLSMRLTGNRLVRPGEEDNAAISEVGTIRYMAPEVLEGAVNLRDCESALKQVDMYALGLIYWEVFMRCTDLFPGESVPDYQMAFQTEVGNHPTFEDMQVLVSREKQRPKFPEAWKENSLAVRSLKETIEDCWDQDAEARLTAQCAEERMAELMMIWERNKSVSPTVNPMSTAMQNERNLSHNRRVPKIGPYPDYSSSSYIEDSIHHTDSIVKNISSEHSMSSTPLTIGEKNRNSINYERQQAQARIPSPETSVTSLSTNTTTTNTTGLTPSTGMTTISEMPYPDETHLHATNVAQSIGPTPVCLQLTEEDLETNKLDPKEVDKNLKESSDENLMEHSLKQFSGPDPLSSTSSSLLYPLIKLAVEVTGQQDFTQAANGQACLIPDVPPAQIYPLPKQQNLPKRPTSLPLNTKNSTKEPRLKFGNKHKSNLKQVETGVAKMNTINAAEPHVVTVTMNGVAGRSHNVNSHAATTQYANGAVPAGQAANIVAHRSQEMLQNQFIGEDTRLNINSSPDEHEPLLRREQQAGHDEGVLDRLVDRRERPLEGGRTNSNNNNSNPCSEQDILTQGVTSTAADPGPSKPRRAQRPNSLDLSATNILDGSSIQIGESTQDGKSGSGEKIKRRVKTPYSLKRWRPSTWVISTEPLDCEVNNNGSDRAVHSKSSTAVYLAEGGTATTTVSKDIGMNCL

LRP6 = target: T2, LRP6 (UniProt O88572 20-1613, limits assumed); assay: proximity ligation assay in fibroblasts
T2 construct: whole, on cells

[2] = target: B2; assay: competition ELISA: the peptide is added to the antibody on coated LEFTY proteins
[3] = target: T3, 1189 SCR1 (human LEFTY1-human Fc fusion protein) (human); assay: ELISA, plate coated with 5 ug/ml protein, 5 ug/ml primary antibody, absorbance at 450 nm
T3 construct: also called Lefty SCR; Lefty Scr
T3 chain: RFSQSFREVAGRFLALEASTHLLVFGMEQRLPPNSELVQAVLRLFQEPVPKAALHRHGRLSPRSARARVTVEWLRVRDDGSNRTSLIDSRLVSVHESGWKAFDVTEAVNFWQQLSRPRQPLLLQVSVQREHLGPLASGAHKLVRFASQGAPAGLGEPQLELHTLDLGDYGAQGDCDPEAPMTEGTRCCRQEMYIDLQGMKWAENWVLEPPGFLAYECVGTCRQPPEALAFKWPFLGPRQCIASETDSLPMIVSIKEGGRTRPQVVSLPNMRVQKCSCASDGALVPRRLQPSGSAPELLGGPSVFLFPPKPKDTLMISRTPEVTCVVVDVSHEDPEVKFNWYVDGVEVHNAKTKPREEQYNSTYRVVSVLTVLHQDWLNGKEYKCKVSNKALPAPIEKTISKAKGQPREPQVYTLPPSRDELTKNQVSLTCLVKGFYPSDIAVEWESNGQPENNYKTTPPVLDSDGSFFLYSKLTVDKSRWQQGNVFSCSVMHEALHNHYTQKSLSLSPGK

[4] = target: T4, 1189 IMM (human LEFTY1-Rabbit Fc fusion protein) (human); assay: as above
T4 construct: also called Lefty IMM; Lefty Imm
T4 chain: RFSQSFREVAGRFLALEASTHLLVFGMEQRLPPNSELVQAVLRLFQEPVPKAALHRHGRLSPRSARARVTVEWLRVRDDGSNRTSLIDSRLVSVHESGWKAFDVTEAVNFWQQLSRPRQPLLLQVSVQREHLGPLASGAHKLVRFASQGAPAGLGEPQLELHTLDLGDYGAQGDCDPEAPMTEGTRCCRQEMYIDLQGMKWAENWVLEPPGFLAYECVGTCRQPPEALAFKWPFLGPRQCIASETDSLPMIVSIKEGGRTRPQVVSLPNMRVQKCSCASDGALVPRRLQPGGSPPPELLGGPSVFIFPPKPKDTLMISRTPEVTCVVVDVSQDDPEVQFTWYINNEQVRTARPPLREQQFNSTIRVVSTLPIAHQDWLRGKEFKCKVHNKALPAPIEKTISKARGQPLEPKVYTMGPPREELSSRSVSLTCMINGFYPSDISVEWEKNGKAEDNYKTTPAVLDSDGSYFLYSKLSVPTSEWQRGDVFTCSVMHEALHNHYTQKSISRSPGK

[5] = target: T5, recombinant human LEFTY2 protein (R&D Systems, catalog number 746-LF-025) (human, UniProt O00292 78-366, limits assumed); assay: as above
T5 construct: also called Lefty R&D; rhLefty2 protein
T5 sequence (looked up): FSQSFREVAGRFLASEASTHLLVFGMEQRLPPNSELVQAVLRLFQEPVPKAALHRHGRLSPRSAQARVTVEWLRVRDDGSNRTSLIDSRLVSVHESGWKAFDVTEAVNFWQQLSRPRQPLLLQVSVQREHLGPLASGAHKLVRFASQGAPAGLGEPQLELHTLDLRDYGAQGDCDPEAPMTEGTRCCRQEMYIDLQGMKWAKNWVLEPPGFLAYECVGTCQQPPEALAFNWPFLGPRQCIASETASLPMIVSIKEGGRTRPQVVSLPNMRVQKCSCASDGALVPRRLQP

[6] = target: T6, BMPR2 on human breast cancer cells (PDX tumor cells, MDA-MB-231) (human, UniProt Q13873 27-1038); assay: proximity ligation assay on sorted PDX cells
T6 construct: whole, on cells
T6 sequence (looked up): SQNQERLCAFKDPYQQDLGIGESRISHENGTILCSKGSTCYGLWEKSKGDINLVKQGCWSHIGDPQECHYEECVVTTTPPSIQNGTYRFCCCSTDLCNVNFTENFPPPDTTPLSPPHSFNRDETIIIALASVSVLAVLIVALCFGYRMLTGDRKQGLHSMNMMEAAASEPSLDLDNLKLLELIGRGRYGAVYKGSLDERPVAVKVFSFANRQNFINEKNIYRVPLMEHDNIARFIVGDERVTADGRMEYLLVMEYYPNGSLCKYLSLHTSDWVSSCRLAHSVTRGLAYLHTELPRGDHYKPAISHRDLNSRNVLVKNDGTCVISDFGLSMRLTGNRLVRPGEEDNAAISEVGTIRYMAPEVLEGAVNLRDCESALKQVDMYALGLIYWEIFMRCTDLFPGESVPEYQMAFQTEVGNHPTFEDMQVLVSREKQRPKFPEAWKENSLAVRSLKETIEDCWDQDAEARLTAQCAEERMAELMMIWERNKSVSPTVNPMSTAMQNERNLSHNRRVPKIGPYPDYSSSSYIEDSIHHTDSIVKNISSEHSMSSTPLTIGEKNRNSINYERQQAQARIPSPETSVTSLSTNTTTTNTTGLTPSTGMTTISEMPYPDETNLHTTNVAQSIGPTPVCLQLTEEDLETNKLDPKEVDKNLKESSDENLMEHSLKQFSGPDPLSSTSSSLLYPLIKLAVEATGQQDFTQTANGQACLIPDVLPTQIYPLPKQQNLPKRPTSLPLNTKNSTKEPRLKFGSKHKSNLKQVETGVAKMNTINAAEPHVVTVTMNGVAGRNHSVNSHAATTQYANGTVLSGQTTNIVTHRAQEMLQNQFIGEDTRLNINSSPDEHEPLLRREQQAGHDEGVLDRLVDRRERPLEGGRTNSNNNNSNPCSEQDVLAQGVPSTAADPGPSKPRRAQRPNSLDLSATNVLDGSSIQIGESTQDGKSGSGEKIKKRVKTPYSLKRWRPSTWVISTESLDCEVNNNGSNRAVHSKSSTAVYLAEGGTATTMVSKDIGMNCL

T2 sequence (O88572 20-1613 limits assumed): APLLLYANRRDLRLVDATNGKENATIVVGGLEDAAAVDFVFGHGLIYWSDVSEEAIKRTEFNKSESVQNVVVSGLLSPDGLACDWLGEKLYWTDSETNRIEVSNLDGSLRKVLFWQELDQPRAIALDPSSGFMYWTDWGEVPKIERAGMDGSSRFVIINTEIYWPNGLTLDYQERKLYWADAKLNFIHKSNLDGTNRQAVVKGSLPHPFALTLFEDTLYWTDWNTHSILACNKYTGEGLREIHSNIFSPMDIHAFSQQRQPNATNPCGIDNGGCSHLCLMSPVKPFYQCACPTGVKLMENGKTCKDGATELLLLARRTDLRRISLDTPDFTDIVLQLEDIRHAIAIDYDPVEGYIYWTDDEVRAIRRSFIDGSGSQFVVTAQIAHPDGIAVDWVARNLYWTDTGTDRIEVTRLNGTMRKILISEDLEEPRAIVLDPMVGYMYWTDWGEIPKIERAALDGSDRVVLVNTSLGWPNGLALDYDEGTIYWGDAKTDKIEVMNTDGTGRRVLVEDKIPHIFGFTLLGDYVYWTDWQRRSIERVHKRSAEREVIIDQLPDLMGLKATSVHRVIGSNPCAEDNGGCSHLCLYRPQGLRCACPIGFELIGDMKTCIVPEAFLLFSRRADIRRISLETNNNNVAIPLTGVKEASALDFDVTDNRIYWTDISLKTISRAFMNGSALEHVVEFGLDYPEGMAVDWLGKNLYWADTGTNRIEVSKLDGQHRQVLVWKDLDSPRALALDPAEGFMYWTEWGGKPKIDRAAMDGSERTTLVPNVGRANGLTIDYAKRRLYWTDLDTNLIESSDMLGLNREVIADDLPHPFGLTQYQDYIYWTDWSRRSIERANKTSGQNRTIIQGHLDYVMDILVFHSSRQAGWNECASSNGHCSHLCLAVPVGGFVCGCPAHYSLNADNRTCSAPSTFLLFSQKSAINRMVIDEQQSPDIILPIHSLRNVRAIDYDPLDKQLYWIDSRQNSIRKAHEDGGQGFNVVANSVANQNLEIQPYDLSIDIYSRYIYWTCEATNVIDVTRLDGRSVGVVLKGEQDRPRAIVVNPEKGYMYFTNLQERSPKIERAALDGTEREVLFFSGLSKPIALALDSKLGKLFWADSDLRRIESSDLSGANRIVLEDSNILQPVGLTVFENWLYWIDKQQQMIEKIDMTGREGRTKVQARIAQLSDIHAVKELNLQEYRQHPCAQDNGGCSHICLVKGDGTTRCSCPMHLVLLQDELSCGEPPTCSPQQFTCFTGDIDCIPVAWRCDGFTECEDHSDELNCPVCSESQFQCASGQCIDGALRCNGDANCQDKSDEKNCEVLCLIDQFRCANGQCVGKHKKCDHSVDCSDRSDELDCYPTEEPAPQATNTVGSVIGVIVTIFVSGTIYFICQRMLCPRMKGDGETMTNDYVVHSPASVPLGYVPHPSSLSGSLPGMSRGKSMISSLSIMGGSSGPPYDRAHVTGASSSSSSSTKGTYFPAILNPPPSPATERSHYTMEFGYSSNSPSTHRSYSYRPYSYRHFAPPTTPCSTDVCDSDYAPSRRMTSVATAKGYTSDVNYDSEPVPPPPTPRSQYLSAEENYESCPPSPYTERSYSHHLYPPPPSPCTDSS

B1: LEFTY1 (recombinant mouse Lefty1 protein, R&D Systems, catalog number 994-LF) (ligand, UniProt Q64280 78-368, looked up)
chain: FSQNLREVAGRFLVSETSTHLLVFGMEQRLPPNSELVQAVLRLFQEPVPRTALRRQKRLSPHSARARVTIEWLRFRDDGSNRTALIDSRLVSIHESGWKAFDVTEAVNFWQQLSRPRQPLLLQVSVQREHLGPGTWSSHKLVRFAAQGTPDGKGQGEPQLELHTLDLKDYGAQGNCDPEAPVTEGTRCCRQEMYLDLQGMKWAENWILEPPGFLTYECVGSCLQLPESLTSRWPFLGPRQCVASEMTSLPMIVSVKEGGRTRPQVVSLPNMRVQTCSCASDGALIPRRLQP
notes: Added to cells at 200 ng/ml (co-IP, SMAD assays)
- binding result [1]: binds
- binding result (LRP6): no binding

Binder: PMIVSVKEGGRTRPQVVSLPNMRVQT [Lefty1 peptide PMIVSVKEGGRTRPQVVSLPNMRVQT]
- binding result [2]: binds

Binder: B2
- binding result [3]: binds
- binding result [4]: binds
- binding result [5]: binds

B3: BMP7 in human breast cancer PDX cells (ligand, UniProt P18075 293-431, looked up)
chain: STGSKQRSQNRSKTPKNQEALRMANVAENSSSDQRQACKKHELYVSFRDLGWQDWIIAPEGYAAYYCEGECAFPLNSYMNATNHAIVQTLVHFINPETVPKPCCAPTQLNAISVLYFDDSSNVILKKYRNMVVRACGCH
- binding result [6]: binds

B4: BMP7 (R&D Systems 5666-BP) (ligand, mouse, UniProt P23359 292-430, looked up)
chain: STGGKQRSQNRSKTPKNQEALRMASVAENSSSDQRQACKKHELYVSFRDLGWQDWIIAPEGYAAYYCEGECAFPLNSYMNATNHAIVQTLVHFINPDTVPKPCCAPTQLNAISVLYFDDSSNVILKKYRNMVVRACGCH
- binding result [1]: binds
